Laboratory results from patent US11906519B2, “Methods for identifying LILRB-blocking antibodies” (THE BOARD OF REGENTS OF THE UNIVERSITY OF TEXAS SYSTEM, priority 2016, dated 2024).

Key:
Type in all cases: cell-based, human
[1] = system: MV4-11 cells; experiment: Transwell trans-endothelial migration of MV4-11 cells; conditions: lilrb4-KO MV4-11, recombinant protein supplemented
Experimental: Transwell assay. To test the cell plasticity, 1×10^5 MV4-11 cells were labelled with CFSE (Invitrogen) and treated with 100 μg/ml of anti-LILRB4 antibody C84 or control antibody mIgG and cultured in the upper chamber of well in a transwell plate (Corning). After 18 h, cells in lower chamber were counted. To test the ability of AML cells to migrate through endothelial cells, 3×10^5 human umbilical vein endothelial cells (HUVEC) cells were cultured on the transwell membrane. After 3 days, 1×10^5 CFSE-labelled MV4-11 cells were seeded in the upper chamber with 100 μg/ml of C84 or mIgG. After 18 h, cells in lower chamber were counted.

[2] = system: T cells co-cultured with THP-1 cells; experiment: Tumor cell/T cell co-culture assay; conditions: T cells with irradiated THP-1 cells, protein supplemented
Experimental: Tumor cell/T cell co-culture assay. Human T cells isolated from health donor peripheral blood (PB009-1-0, Allcells) were co-cultured with irradiated (28 Gy) THP-1 cells in a U-bottom 96 well-plate for 3-7 days. Anti-CD3/CD28-coated beads (#11161D, Thermo Fisher), 50 U/ml recombinant human IL-2, and 5 ng/ml recombinant human IL-7 were supplemented to the medium. In some experiments, THP-1 cells were cultured in the upper chamber of transwell inserts (pore size is 3 μM, #09-761-80, Thermo Fisher) for the U-bottom 96 well-plate. For primary AML or B-ALL samples, patient CD3^+ T cells were collected and patient leukemia cells were sorted as CD33^+ and CD19^+ for AML and B-ALL, respectively.
CD8^+ T cells (5×10^4 per well) isolated from hPBMCs of a healthy donor (Interstate Blood Bank) were stimulated with anti-CD3/CD28/CD137-coated beads (11163D, Thermo Fisher) or cultured without stimulation for 2 days in a 96-well plate. Then, 5×10^3 human leukemia THP-1-Luc-GFP cells and 50 to 500 μg/ml anti-LILRB4 antibody C84 or control antibody mIgG were added. Cell numbers were determined on day 7 in triplicate wells. Anti-CD8 and anti-CD28 were used to detect human CTL cells; THP-1 cells were positive for GFP. […]

[3] = system: THP-1 cells; experiment: Transwell trans-endothelial migration of THP-1 cells; conditions: lilrb4-KO THP-1, recombinant protein supplemented

B1: arginase-1: recombinant Arginase-1 protein supplemented to culture (protein, UniProt P05089 1-322, looked up)
Arginase-1: MSAKSRTIGIIGAPFSKGQPRGGVEEGPTVLRKAGLLEKLKEQECDVKDYGDLPFADIPNDSPFQIVKNPRSVGKASEQLAGKVAEVKKNGRISLVLGGDHSLAIGSISGHARVHPDLGVIWVDAHTDINTPLTTTSGNLHGQPVSFLLKELKGKIPDVPGFSWVTPCISAKDIVYIGLRDVDPGEHYILKTLGIKYFSMTEVDRLGIGKVMEETLSYLLGRKKRPIHLSFDVDGLDPSFTPATGTPVVGGLTYREGLYITEEIYKTGLLSGLDIMEVNPSLGKTPEEVTRTVNTAVAITLACFGLAREGNHKPIDYLNPPK
Migration ability of MV4-11 cells across endothelial cells [1]: increased | T cell proliferation in coculture [2]: decreased | Migration ability of THP-1 cells across endothelial cells [3]: increased
